Earlier results, collected in PMC3179904.

Molecular target: CheA (Escherichia coli) (UniProt P07363)
Chain of UniProt P07363 (P07363 whole entry): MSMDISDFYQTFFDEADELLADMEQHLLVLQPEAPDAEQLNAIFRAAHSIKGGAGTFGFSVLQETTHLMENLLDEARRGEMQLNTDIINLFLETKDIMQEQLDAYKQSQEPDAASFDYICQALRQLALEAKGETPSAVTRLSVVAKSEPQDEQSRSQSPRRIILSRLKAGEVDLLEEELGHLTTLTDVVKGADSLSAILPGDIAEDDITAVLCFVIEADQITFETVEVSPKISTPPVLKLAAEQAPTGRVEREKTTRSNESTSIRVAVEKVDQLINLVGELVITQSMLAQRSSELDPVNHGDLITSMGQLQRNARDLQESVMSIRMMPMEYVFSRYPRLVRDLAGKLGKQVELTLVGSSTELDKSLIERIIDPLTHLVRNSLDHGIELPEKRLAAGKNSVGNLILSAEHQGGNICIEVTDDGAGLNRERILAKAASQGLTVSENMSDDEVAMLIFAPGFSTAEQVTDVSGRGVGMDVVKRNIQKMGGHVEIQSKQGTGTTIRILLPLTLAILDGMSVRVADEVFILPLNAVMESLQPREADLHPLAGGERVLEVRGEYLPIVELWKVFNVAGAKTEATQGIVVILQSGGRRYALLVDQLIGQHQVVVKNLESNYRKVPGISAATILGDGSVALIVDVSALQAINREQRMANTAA

Kd: 17 µM
Substance: CheW (from UniProt P0A964)
